The data set is described as follows: protein stability index of a GFP-peptide fusion (GPS, HEK-293T) (PSI 1-6); higher = more stable. Particulars: c terminus: a fixed tail appended.

Among the data in the supplement of paper PMC10567573 are protein stability index values, retold here.

± gives the standard deviation.
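Note: 24-mer peptide tiles fused after GFP, lentivirally expressed, FACS-sorted into six equal bins by GFP/DsRed ratio, decoded by Illumina sequencing, PSI is the read-weighted mean bin number.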

As to SGDAAAQPAFTGIKGKEGSALTEG [EPB41L3], the protein stability index was determined as 5.55 ± 0.24 (treatment: DMSO) and 5.32 ± 0.33 (treatment: MLN4924 1 uM, 8 h).

Turning to HIWELSSIKNSLKVAAISESPVAE [PTGFR], the protein stability index is, setting by setting: (treatment: DMSO) 3.11 ± 0.28; (treatment: MLN4924 1 uM, 8 h) 3.21 ± 0.39.

Turning to AEKLKAQGEYSRKLEERFMTLAAN [CCDC89], the protein stability index by setting is: (treatment: DMSO) 3.4 ± 0.41; (treatment: MLN4924 1 uM, 8 h) 3.49 ± 0.45.

For CLKEFPEKQELHRNMLGLLGNVAE [ZER1], the protein stability index is 3.19 ± 0.15 (treatment: DMSO) and 3.3 ± 0.23 (treatment: MLN4924 1 uM, 8 h).

In the case of VCDSCHEAITDEERAPTATFHDSK [WDFY2], the protein stability index came to 5.02 ± 0.21 (treatment: DMSO) and 5.16 ± 0.13 (treatment: MLN4924 1 uM, 8 h).

As to AKAEGFTASTKNCMVGYDMGATRC [CPXM2], the protein stability index (treatment: DMSO) was found to be 3.42 ± 0.31 and the protein stability index (treatment: MLN4924 1 uM, 8 h) turned out to be 3.62 ± 0.1.

Sequence ANYLEKVRQLERENAELESRIQEW [KRT36] yielded a protein stability index (treatment: DMSO) of 4.27 ± 0.3 and a protein stability index (treatment: MLN4924 1 uM, 8 h) of 4.46 ± 0.16.

HFAAASTHGALCLELLVNNGADVN [ANKRD44]: the protein stability index was 2.73 ± 0.23 (treatment: DMSO) and 2.62 ± 0.38 (treatment: MLN4924 1 uM, 8 h).

Turning to GADPDSRDFDNNTPLHIAAQNNCP [FEM1A], the protein stability index is, setting by setting: (treatment: DMSO) 4.96 ± 0.39; (treatment: MLN4924 1 uM, 8 h) 5.18 ± 0.88.

Consider DNVPDPKDVKERFSGSLVAALSAT [TMEM175], for which the protein stability index came to 4.42 ± 0.34 (treatment: DMSO) and 4.44 ± 0.34 (treatment: MLN4924 1 uM, 8 h).

With CGFGGGAGSVFGGGFGGGVGGGFG [KRT15], the protein stability index (treatment: DMSO) turned out to be 2.27 ± 0.49 and the protein stability index (treatment: MLN4924 1 uM, 8 h) turned out to be 2.77 ± 0.23.

For AIELFHSYRETRRKEGIVKLKPHE [PTPN9], the protein stability index reads like this: (treatment: DMSO) 3 ± 0.2; (treatment: MLN4924 1 uM, 8 h) 3.25 ± 0.27.

Sequence TNFEGPPRLKEDQPWMVIEGIRQT [FSD1] had a protein stability index (treatment: DMSO) of 3.5 ± 0.082 and a protein stability index (treatment: MLN4924 1 uM, 8 h) of 3.75 ± 0.33.

On to KEPAEFNGDGAFLHDNHEQMPTEI [ZNF649], for which the protein stability index is, setting by setting: (treatment: DMSO) 5.11 ± 0.25; (treatment: MLN4924 1 uM, 8 h) 5.16 ± 0.26.

For SARMSAGLPGPEAARSGDAAANKL [PLEKHN1], the protein stability index reads like this: (treatment: DMSO) 5.22 ± 0.085; (treatment: MLN4924 1 uM, 8 h) 4.92 ± 0.18.

With EKEKEKHKVKAEEEKKAKVAPPAK [BRD3], the protein stability index was 5.38 ± 0.34 (treatment: DMSO) and 5.56 ± 0.14 (treatment: MLN4924 1 uM, 8 h).

Turning to YEYDHWDAAIHGFRETEKSRWSEA [ALKBH7], the protein stability index was found to be 3.64 ± 0.38 (treatment: DMSO) and 3.73 ± 0.22 (treatment: MLN4924 1 uM, 8 h).

Take CGTPNYLSPEVLNKQGHGCESDIW [PLK2]: the protein stability index reads like this: (treatment: DMSO) 2.78 ± 0.28; (treatment: MLN4924 1 uM, 8 h) 2.83 ± 0.28.

Turning to FTEYQASAFGNVKLVVHDCPVWDI [RHOBTB3], the protein stability index is, setting by setting: (treatment: DMSO) 2.54 ± 0.72; (treatment: MLN4924 1 uM, 8 h) 2.46 ± 0.41.

As to KGEEVTPISAIRHEGKTDSERTDT [EPB41L3], the protein stability index is, setting by setting: (treatment: DMSO) 5.44 ± 0.45; (treatment: MLN4924 1 uM, 8 h) 5.43 ± 0.3.

Take LLSIGPELPKPEVISQLEQGTELW [ZNF8]: the protein stability index reads like this: (treatment: DMSO) 4.19 ± 0.28; (treatment: MLN4924 1 uM, 8 h) 3.54 ± 0.099.

Regarding QGLEQFINKIAGHPLAQNERCLHM [SNX12], the protein stability index reads like this: (treatment: DMSO) 2.27 ± 0.13; (treatment: MLN4924 1 uM, 8 h) 2.41 ± 0.21.

With ASLLHLAVEAGQEECAKWLLLNNA [RIPK4], the protein stability index is, setting by setting: (treatment: DMSO) 2.17 ± 0.068; (treatment: MLN4924 1 uM, 8 h) 2.74 ± 0.13.

As for GPFDQGSPFAQELLDDGQQASPYH [ELF3], the protein stability index reads like this: (treatment: DMSO) 5.16 ± 0.18; (treatment: MLN4924 1 uM, 8 h) 4.96 ± 0.13.

For TIEERVNILFDFVKKKKEEGVIDS [EIF5], the protein stability index came out at 3.68 ± 0.065 (treatment: DMSO) and 3.39 ± 0.29 (treatment: MLN4924 1 uM, 8 h).

For DETHFGKMGSYYINRTFFFDVHPP [POMT2], the protein stability index is, setting by setting: (treatment: DMSO) 2.45 ± 0.21; (treatment: MLN4924 1 uM, 8 h) 2.23 ± 0.33.

Take DILMEFGHLFPPPTPIFAGGANDR [WSB1]: the protein stability index is, setting by setting: (treatment: DMSO) 2.41 ± 0.46; (treatment: MLN4924 1 uM, 8 h) 2.51 ± 0.45.

Regarding VQQWLQKGTPASKLILGMPTYGRS [CHIT1], the protein stability index by setting is: (treatment: DMSO) 2.25 ± 0.25; (treatment: MLN4924 1 uM, 8 h) 2.51 ± 0.29.

Consider LWTSFIQSVSYSKLLSVIVWMLML [P2RY14], for which the protein stability index runs as follows: (treatment: DMSO) 3.32 ± 0.53; (treatment: MLN4924 1 uM, 8 h) 3.4 ± 0.21.

Take RYRQAGSSGPGNSQNSFLVQEVME [RPAIN]: the protein stability index was found to be 4.17 ± 0.23 (treatment: DMSO) and 3.82 ± 0.28 (treatment: MLN4924 1 uM, 8 h).

In the case of PSSLMETLEQHLNTLEGKKPGNNE [SNAP91], the protein stability index turned out to be 5.17 ± 0.09 (treatment: DMSO) and 5.05 ± 0.17 (treatment: MLN4924 1 uM, 8 h).

For the sequence EEEGFGSSSPVKSPAAPYFLGSSF [WEE1], the protein stability index by setting is: (treatment: DMSO) 3.73 ± 0.18; (treatment: MLN4924 1 uM, 8 h) 3.77 ± 0.065.

GRRAALYVHWPYCEKRCSYCNFNK [RSAD1] yielded a protein stability index (treatment: DMSO) of 2.23 ± 0.45 and a protein stability index (treatment: MLN4924 1 uM, 8 h) of 2.96 ± 0.55.

Take PAYATTRIRSQIGNTESELKKLAE [GDAP1]: the protein stability index worked out at 4.53 ± 0.095 (treatment: DMSO) and 4.53 ± 0.18 (treatment: MLN4924 1 uM, 8 h).

On to LMRHGMEKIWRPNRVFSLQDLCCR [RAB40C], for which the protein stability index runs as follows: (treatment: DMSO) 2.74 ± 0.14; (treatment: MLN4924 1 uM, 8 h) 2.71 ± 0.27.

KAKRNRTCRPPSSSESSSDSDNSG [ANKRD17]: the protein stability index is, setting by setting: (treatment: DMSO) 5.64 ± 0.27; (treatment: MLN4924 1 uM, 8 h) 5.43 ± 0.2.

For the sequence KLVKKHAAQRSTETALYRKMLGNP [FKBP8], the protein stability index runs as follows: (treatment: DMSO) 2.95 ± 0.47; (treatment: MLN4924 1 uM, 8 h) 3.04 ± 0.25.

As for LEESDIDRDGTINLSEFQHVISRS [CIB1], the protein stability index is, setting by setting: (treatment: DMSO) 4.69 ± 0.24; (treatment: MLN4924 1 uM, 8 h) 4.75 ± 0.084.

APHSQGEYDVYSTFQSHEPEFDYL [PPP2R2C]: the protein stability index was 4.22 ± 0.19 (treatment: DMSO) and 4.13 ± 0.2 (treatment: MLN4924 1 uM, 8 h).

As to GPLLGTNGATDDSKTNLIVNYLPQ [ELAVL3], the protein stability index by setting is: (treatment: DMSO) 3.84 ± 0.3; (treatment: MLN4924 1 uM, 8 h) 3.92 ± 0.24.

As for RELAERGVRIVSRGRTQLFSLNPR [PCDHGA10], the protein stability index is, setting by setting: (treatment: DMSO) 3.2 ± 0.35; (treatment: MLN4924 1 uM, 8 h) 3.33 ± 0.12.

As to MGPAPRARPWTRDSASLPRKPSVP [RASAL3], the protein stability index is, setting by setting: (treatment: DMSO) 4.08 ± 0.14; (treatment: MLN4924 1 uM, 8 h) 4.12 ± 0.23.

Consider HLVAGGGAGAVSRTCTAPLDRLKV [SLC25A25], for which the protein stability index is 3.11 ± 0.35 (treatment: DMSO) and 3.25 ± 0.22 (treatment: MLN4924 1 uM, 8 h).

On to PFTKKRVGVDRAFPLKPMVHRKSC [ZC2HC1C], for which the protein stability index reads like this: (treatment: DMSO) 3.4 ± 0.13; (treatment: MLN4924 1 uM, 8 h) 3.65 ± 0.1.

For PDSPATGAHWMRQLVSFQKLKLTN [TBX5], the protein stability index is, setting by setting: (treatment: DMSO) 2.92 ± 0.35; (treatment: MLN4924 1 uM, 8 h) 3 ± 0.21.

Take IVTWFMLLYAQGLLAIQFLEFFYG [SLC19A2]: the protein stability index (treatment: DMSO) was determined as 3.28 ± 0.52 and the protein stability index (treatment: MLN4924 1 uM, 8 h) was 3.18 ± 0.46.

For VPPGVVNIVFGTGPRVGEALVSHP [ALDH8A1], the protein stability index by setting is: (treatment: DMSO) 2.21 ± 0.36; (treatment: MLN4924 1 uM, 8 h) 2.27 ± 0.35.

For VNLQRFGMNGQMLCNLGKERFLEL [ETS2], the protein stability index reads like this: (treatment: DMSO) 2.27 ± 0.36; (treatment: MLN4924 1 uM, 8 h) 2.27 ± 0.33.

With IAWIKDKLLHIYYQNSIDDRLLVE [PDS5B], the protein stability index was 2.82 ± 0.36 (treatment: DMSO) and 2.43 ± 0.44 (treatment: MLN4924 1 uM, 8 h).

In the case of QALRGLEGYTWRVAQLEDRRSTTD [ZSWIM9], the protein stability index stood at 3.91 ± 0.23 (treatment: DMSO) and 3.75 ± 0.52 (treatment: MLN4924 1 uM, 8 h).

For SLQQMQELSNILNLSYKQVKTWFQ [NANOGP8], the protein stability index worked out at 2.27 ± 0.34 (treatment: DMSO) and 2.16 ± 0.12 (treatment: MLN4924 1 uM, 8 h).

For the sequence LTLCRSDLEAQMESLKEELLSLKQ [KRT33B], the protein stability index reads like this: (treatment: DMSO) 2.41 ± 0.28; (treatment: MLN4924 1 uM, 8 h) 2.8 ± 0.24.
